Results published in the supplement of paper PMC9170038.

System: MS2 coat protein
Experiment: apparent KD of MS2 coat protein; higher = weaker reporter binding
Details: Eterna round: R107
In short: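 Designed RNA switches were transcribed on-chip from Illumina sequencing clusters. SNAP-549-labelled MS2 coat protein was titrated onto them in twofold steps from 0.7 or 1.5 nM to 3 µM in 100 mM Tris-HCl pH 7.5, 80 mM KCl, 4 mM MgCl2, either without or with constant ligand. Apparent KD reflects the per-design median of normalised cluster binding-curve fits.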

[1] = input ligand: theophylline 20 uM
[2] = input ligand: theophylline 2 mM
[3] = input ligand: tryptophan 2.4 mM

Sequence: CCCAGUUAGAUCAAAGGAAUUAUACUCGAAGGAGCGUCAUAGUAGGCAGGUAGGUCGCGAGACAUGAGGAUCACCCAUGUAGAGA [azqmullin]
- apparent KD of MS2 coat protein (input ligand: arginine 13.2 mM): 30.3 nM
- apparent KD of MS2 coat protein (input ligand: none): 37.9 nM
- apparent KD of MS2 coat protein [1]: 51.2 nM
- apparent KD of MS2 coat protein [2]: 41 nM
- apparent KD of MS2 coat protein [3]: 37.8 nM

Sequence: CCGAACAUGAGGAUCACCCAUGUUAGGGAUACCAGCCCAGACAUGGGCCCUUGGCAGCUCUAUAGCUGACGAAAGUCAGCAUCGG [#14 SameState-TheophyllineA]
- apparent KD of MS2 coat protein (input ligand: arginine 13.2 mM): 34.9 nM
- apparent KD of MS2 coat protein [1]: 65.7 nM
- apparent KD of MS2 coat protein [3]: 44.4 nM

Sequence: CCGACGAUGACCAAAGGUCAGGAGUGCGCACGAGGACCGGUACGGCCGCCACUCGAGGAGUGGGACAUGAGGAUCACCCAUGUAA [X-TryptA-ms2@65-1]
- apparent KD of MS2 coat protein (input ligand: arginine 13.2 mM): 23.9 nM
- apparent KD of MS2 coat protein (input ligand: none): 22.4 nM
- apparent KD of MS2 coat protein [1]: 29 nM
- apparent KD of MS2 coat protein [2]: 20.6 nM
- apparent KD of MS2 coat protein [3]: 21.8 nM

Sequence: CCGUUUUAUGGCGACAUAGGGCGGACUGAAGGAGCGGUAUAAUAGCCAGGUAGGUCGCAGAGAUCCACAUGAGGAUCACCCAUGU [!0.aB]
- apparent KD of MS2 coat protein (input ligand: arginine 13.2 mM): 73.9 nM
- apparent KD of MS2 coat protein (input ligand: none): 34.3 nM
- apparent KD of MS2 coat protein [1]: 51.5 nM
- apparent KD of MS2 coat protein [2]: 42.9 nM
- apparent KD of MS2 coat protein [3]: 34.3 nM

Sequence: CCUAUGCAGUCGGCCGCCACUGAGUCCUCAAUAAUAAAUUAUUAUACAUGAGGAUCACCCAUGUACAGGACCGGGACUGUAUAGG [Ex Tryptophan B 14]
- apparent KD of MS2 coat protein (input ligand: arginine 13.2 mM): 89 nM
- apparent KD of MS2 coat protein (input ligand: none): 122 nM
- apparent KD of MS2 coat protein [1]: 244 nM
- apparent KD of MS2 coat protein [2]: 237 nM
- apparent KD of MS2 coat protein [3]: 214 nM

Sequence: CCUGCUACGGGAAACCGUAGCAGGAAUGAUACCAGUAGGAAAGACUACCCUUGGCAGCAUGGGAAACAUGAGGAUCACCCAUGUU [SSThA NP+V+V2 #7 Same Structure]
- apparent KD of MS2 coat protein (input ligand: arginine 13.2 mM): 37.1 nM
- apparent KD of MS2 coat protein [1]: 76.3 nM
- apparent KD of MS2 coat protein [3]: 50.8 nM

Sequence: CGCAACCCACAUGAGGAUCACCCAUGUGAAGGAGCGGCGAAUAAGCCAGGUAGGUCGCGCAUGAAUAAAUCAUGUAGGAAGCUAA [XArg-A 8 V1]
- apparent KD of MS2 coat protein (input ligand: arginine 13.2 mM): 9.8 nM
- apparent KD of MS2 coat protein (input ligand: none): 10.8 nM
- apparent KD of MS2 coat protein [1]: 13.2 nM
- apparent KD of MS2 coat protein [2]: 12.7 nM
- apparent KD of MS2 coat protein [3]: 9.79 nM

Sequence: CGCGAGACGGCGGCCGCCACUUGUUGUUGGAAACUCGAGUUACAUGAGGAUCACCCAUGUCCUUAAAGGACCGGGCCGUAAGUAA [theeternabot_sameState_MS2_Trp_B_13]
- apparent KD of MS2 coat protein (input ligand: arginine 13.2 mM): 99.3 nM
- apparent KD of MS2 coat protein [1]: 198 nM
- apparent KD of MS2 coat protein [2]: 219 nM

Sequence: CGCGCGACAUGAGGAUCACCCAUGUUCCCUCGAGGACCGGUACGGCCGCCACUCGAGGACAUGAGCAUCAGCCAUGUACCGGUCA [Default title]
- apparent KD of MS2 coat protein (input ligand: arginine 13.2 mM): 28.8 nM
- apparent KD of MS2 coat protein [1]: 54.6 nM
- apparent KD of MS2 coat protein [2]: 66.2 nM

Sequence: CGCGUCCCGGACGAUACCAGAUAUGAGCGACACAUGAGGAUCACCCAUGUCAAUCAUGAGAUCCCUUGGCAGCGUUUGCACAACU [theeternabot_sameState_MS2_Theo_B_8]
- apparent KD of MS2 coat protein (input ligand: arginine 13.2 mM): 81.2 nM
- apparent KD of MS2 coat protein [1]: 210 nM
- apparent KD of MS2 coat protein [3]: 183 nM

Sequence: CGCUGGCCACAUGAGGAUCACCCAUGUGAAGGAGCGGCGAAUAAGCCAGGUAGGUCGCGCAUGAAUAAAUCAUGUAGGUUGCGAA [XArg-A 11 V2]
- apparent KD of MS2 coat protein (input ligand: arginine 13.2 mM): 16.9 nM
- apparent KD of MS2 coat protein (input ligand: none): 13.4 nM
- apparent KD of MS2 coat protein [1]: 14.9 nM
- apparent KD of MS2 coat protein [2]: 17.9 nM
- apparent KD of MS2 coat protein [3]: 14.5 nM

Sequence: CGGGAACGAUAUGAUACCAGCCUGCGAAAGAAUGCUUAGUACAUGAGGAUCACCCAUGUAGGCCCUUGGCAGCAUCGACUCAAGU [theeternabot_exclusion_MS2_Theo_B_4]
- apparent KD of MS2 coat protein (input ligand: arginine 13.2 mM): 13.1 nM
- apparent KD of MS2 coat protein [1]: 18.1 nM
- apparent KD of MS2 coat protein [3]: 13.2 nM

Sequence: CGGUACAUGAGGAUCACCCAUGUGUCGGAUACCAGAGAGCCGGCUCUCCCUUGGCAGCUGGUGCGACAUGAGGAUCACCCAUGUG [Exclusion Theophylline A GF19]
- apparent KD of MS2 coat protein (input ligand: arginine 13.2 mM): 29.4 nM
- apparent KD of MS2 coat protein (input ligand: none): 61.6 nM
- apparent KD of MS2 coat protein [1]: 58.5 nM
- apparent KD of MS2 coat protein [2]: 67.4 nM
- apparent KD of MS2 coat protein [3]: 53.3 nM

Sequence: CGGUGUAGGGUUAAUAGGCUGAGUACAGAAGGAGCGCGAAUAAACGCAGGUAGGUCGCUGGCGAACAUGAGGAUCACCCAUGUAU [Same State Arginine A GF 30]
- apparent KD of MS2 coat protein (input ligand: arginine 13.2 mM): 29.5 nM
- apparent KD of MS2 coat protein (input ligand: none): 18.4 nM
- apparent KD of MS2 coat protein [1]: 24 nM
- apparent KD of MS2 coat protein [2]: 32 nM
- apparent KD of MS2 coat protein [3]: 15.9 nM

Sequence: CGUAGUAUCAGACAUGAGGAUCACCCAUGUCGAGGACCGGUACGGCCGCCACUCGGCAGUUUGCGUCCUCAGGUACUCCAGGUAA [Larirexea]
- apparent KD of MS2 coat protein (input ligand: arginine 13.2 mM): 14.8 nM
- apparent KD of MS2 coat protein [1]: 27.9 nM
- apparent KD of MS2 coat protein [2]: 26.1 nM

Sequence: CUACAUUUGUAGAAACCGGUCAACAUUAUUCGAGGACCGGUACGGCCGCCACUCGUAUAUUUUAAUACAUGAGGAUCACCCAUGU [Tryptophan A 6]
- apparent KD of MS2 coat protein (input ligand: arginine 13.2 mM): 12.3 nM
- apparent KD of MS2 coat protein [1]: 14.2 nM
- apparent KD of MS2 coat protein [2]: 13.6 nM

Sequence: CUCAUCCACGCGGCCGCCACUAUAUUGUGGUGUGGGUGUGACGUAUUACAUGAGGAUCACCCAUGUAGGACCGGGCGUGGAUGAG [Stork]
- apparent KD of MS2 coat protein (input ligand: arginine 13.2 mM): 188 nM
- apparent KD of MS2 coat protein (input ligand: none): 408 nM
- apparent KD of MS2 coat protein [1]: 525 nM
- apparent KD of MS2 coat protein [2]: 1100 nM
- apparent KD of MS2 coat protein [3]: 534 nM
